This assay has as its target T1, ASK1-KR (human ASK1 with lysine 709 at the ATP-binding site replaced with arginine) (human, UniProt Q99683 1-1374).
T1 construct: Bait in the yeast two-hybrid screen (Brent's system); also called bait
T1 sequence (looked up): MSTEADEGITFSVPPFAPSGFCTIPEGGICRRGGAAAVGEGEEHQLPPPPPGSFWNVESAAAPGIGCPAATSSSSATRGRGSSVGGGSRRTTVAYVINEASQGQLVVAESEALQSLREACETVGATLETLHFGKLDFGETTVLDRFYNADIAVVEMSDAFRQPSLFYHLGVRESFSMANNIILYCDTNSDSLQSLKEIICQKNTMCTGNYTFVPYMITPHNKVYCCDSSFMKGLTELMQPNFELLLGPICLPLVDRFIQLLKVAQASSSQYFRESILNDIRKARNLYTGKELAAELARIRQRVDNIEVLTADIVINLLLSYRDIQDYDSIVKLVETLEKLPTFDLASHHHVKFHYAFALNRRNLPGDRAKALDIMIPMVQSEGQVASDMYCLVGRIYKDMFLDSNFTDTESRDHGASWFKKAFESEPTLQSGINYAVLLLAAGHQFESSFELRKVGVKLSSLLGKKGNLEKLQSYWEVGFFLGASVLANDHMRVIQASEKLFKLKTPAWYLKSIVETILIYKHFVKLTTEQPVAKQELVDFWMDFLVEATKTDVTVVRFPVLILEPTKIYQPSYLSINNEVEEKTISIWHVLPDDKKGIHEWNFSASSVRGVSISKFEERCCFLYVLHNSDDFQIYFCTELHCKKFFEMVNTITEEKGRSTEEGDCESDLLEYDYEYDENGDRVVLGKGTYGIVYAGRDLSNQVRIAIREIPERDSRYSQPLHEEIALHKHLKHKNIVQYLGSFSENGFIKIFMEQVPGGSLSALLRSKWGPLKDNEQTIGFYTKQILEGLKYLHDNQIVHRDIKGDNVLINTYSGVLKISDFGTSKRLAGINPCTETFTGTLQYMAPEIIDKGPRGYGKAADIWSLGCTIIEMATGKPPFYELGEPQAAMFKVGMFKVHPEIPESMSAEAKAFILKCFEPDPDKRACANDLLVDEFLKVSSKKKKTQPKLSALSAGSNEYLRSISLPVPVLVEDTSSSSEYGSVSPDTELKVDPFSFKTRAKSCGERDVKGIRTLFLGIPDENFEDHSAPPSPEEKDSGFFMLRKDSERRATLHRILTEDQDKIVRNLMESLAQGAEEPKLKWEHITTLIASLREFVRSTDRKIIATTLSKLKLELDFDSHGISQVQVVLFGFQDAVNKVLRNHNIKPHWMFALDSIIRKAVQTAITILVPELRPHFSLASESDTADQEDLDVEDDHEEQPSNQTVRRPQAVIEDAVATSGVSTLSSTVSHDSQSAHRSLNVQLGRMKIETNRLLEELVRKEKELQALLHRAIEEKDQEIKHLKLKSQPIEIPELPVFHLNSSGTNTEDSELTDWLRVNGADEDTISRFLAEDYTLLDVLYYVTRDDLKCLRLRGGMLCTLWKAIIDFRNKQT
Briefly: yeast two-hybrid (Brent's system), ASK1-KR as bait, fetal human brain expression library as prey; positive clone. The procedure: To identify the ASK1-binding protein, screening was conducted by the yeast two-hybrid method using Brent's system [Zervos et al., Cell, Vol. 72, p. 223-232, 1993; Gyuris et al., Cell, Vol. 75, p. 791-803, 1993] with ASK1-KR, prepared by replacing lysine (K) at the ATP-binding site (position 709) in the kinase domain of human ASK1 with arginine (R), as a bait and an expression library of fetal human brain origin as a prey. As a result, about 1200 positive clones were obtained. Database search of one of them based on its base sequence identified it as a portion of the protein coding region of the gene designated as “PGR1” (a portion corresponding to amino acid positions 35 to 127). […] Since this protein was identified as an ASK1-binding protein, it was designated as ASK1 binding protein 1 (ABP1).

B1: ABP1 (PGR1) fragment, amino acid positions 35 to 127, positive clone of the two-hybrid screen (other)
chain: MREDIASLTREHGRAYLRNRSKLWEMDNMLIQIKTQVEASEESALNHLQNPGDAAEGRAAKRCEKAEEKAKEIAKMAEMLVELVRRIEKSESS
notes: Prey from an expression library of fetal human brain origin; also called PGR1 (a portion corresponding to amino acid positions 35 to 127); prey clone
For B1, the binding result is reported as “binds”.

Source of the values: patent publication US20060240023A1 (Takeda / Millennium, published 2006).
